Assay results published in patent US20250326860A1 (ADAGENE PTE, published 2025).
Positions count from the first letter of the chain named. Where two headings read alike, the source gives them in different places.

Columns and labels:
[1] = target: T1, human CD20 on cells (human B cells; Raji, SU-DHL-8, SU-DHL-4, A3KAW, NAMALWA) (human, UniProt P11836 1-297); experiment: flow cytometry, Raji cells
T1 construct: whole, on cells
T1 sequence (looked up): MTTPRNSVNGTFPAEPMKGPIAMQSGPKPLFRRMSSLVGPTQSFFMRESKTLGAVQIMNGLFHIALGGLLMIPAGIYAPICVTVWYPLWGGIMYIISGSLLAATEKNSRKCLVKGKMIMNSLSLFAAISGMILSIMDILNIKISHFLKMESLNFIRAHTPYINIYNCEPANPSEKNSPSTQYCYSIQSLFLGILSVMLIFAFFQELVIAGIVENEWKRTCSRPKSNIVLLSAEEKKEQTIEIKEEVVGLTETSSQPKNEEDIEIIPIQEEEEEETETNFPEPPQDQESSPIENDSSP
Description: (§1) Raji, SU-DHL-8, SU-DHL-4, A3KAW and NAMALWA were B-cell lymphoma cell lines with various CD20 expression levels on cell surface. Briefly, the test antibodies were serial diluted and were incubated with the tumor cells on ice. After washing, the cells were subsequently incubated with the APC-labelled anti-human-Fc secondary antibody (BioLegend) on ice. The cells were then washed with PBS prior to analysis by the CytoFLEX flow cytometer (Beckman Coulter). The data was analyzed by FlowJo software.

[2] = target: T1, human CD20 on cells (human B cells; …); experiment: flow cytometry, A3KAW cells
Description: as §1

[3] = target: T1, human CD20 on cells (human B cells; …); experiment: flow cytometry, human B cells
Source text: (§2) Human and monkey PBMCs were isolated as mentioned above. Human B cells were further isolated from PBMCs using the EasySep™ Human B Cell Isolation Kit (Stem Cell Technologies). Monkey B cells were isolated from PBMCs using the Non-Human B Primate Cell Isolation Kit (Stem Cell Technologies). Purified human or monkey B cells were stained with the testing antibodies as the primary antibody and the APC-labelled anti-human-Fc antibody (BioLegend) as the secondary antibody. After washing, the cells were analyzed on the CytoFLEX flow cytometer (Beckman Coulter) and the data was analyzed by FlowJo software.

[4] = target: T1, human CD20 on cells (human B cells; …); experiment: flow cytometry, NAMALWA cells
Description: as §1

[5] = target: T2, cynomolgus monkey CD20 on B cells (cynomolgus monkey, UniProt M4ZHZ6 1-297); experiment: flow cytometry, monkey B cells
T2 construct: whole, on cells
T2 sequence: T1 sequence (looked up) with S25P, F31L, T51A, A157V, K217R, N226S, I227V, T239V
Source text: as §2

[6] = target: T1, human CD20 on cells (human B cells; …); experiment: flow cytometry, SU-DHL-4 cells
Description: as §1

[7] = target: T1, human CD20 on cells (human B cells; …); experiment: flow cytometry, SU-DHL-8 cells
Description: as §1

[8] = target: T3, human CD3 on cells (Jurkat cells, human T cells) (human, UniProt P07766 23-207); experiment: flow cytometry, human CD3+ T cells
T3 construct: whole, on cells
T3 sequence (P07766 23-207): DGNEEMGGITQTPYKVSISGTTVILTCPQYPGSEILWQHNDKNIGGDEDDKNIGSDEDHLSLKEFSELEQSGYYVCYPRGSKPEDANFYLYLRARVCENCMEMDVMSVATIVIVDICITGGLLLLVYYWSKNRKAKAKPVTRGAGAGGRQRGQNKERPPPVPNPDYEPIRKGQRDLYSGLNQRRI
Source text: (§3) Human PBMCs were freshly isolated from the blood of healthy donors by density gradient centrifugation using Histopaque-1077 (Sigma). Human CD3+ T cells were further isolated from PBMCs using the Human T Cell Enrichment Kit (Stem Cell Technologies). Monkey PBMCs were isolated from a naïve cynomolgus monkey by density gradient centrifugation using Histopaque-1077 (Sigma). Monkey CD3+ T cells were isolated from PBMCs using the Pan T Cell Isolation Kit Non-Human Primate (Miltenyi Biotec). Purified human or monkey CD3+ T cells were stained with the testing antibodies as the primary antibody and the APC-labelled anti-human-Fc antibody (BioLegend) as the secondary antibody. After washing, the cells were analyzed on the CytoFLEX flow cytometer (Beckman Coulter) and the data was analyzed by FlowJo software.

[9] = target: T4, cynomolgus monkey CD3 on T cells (cynomolgus monkey, UniProt Q95LI5 22-198); experiment: flow cytometry, monkey CD3+ T cells
T4 construct: whole, on cells
T4 sequence (Q95LI5 22-198): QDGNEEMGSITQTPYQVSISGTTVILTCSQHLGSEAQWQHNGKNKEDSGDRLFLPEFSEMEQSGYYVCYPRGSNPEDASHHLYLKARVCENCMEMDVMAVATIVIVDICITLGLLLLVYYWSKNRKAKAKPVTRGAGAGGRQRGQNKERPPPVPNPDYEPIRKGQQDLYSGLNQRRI
Source text: as §3

[10] = target: T3, human CD3 on cells (Jurkat cells, human …); experiment: flow cytometry, human CD4+ T cells
Description: (§4) Binding of CD20xCD3 bispecific or SAFE-bispecific antibodies to purified human CD3+ T cells was determined by flow cytometry. Briefly, human or monkey PBMC were freshly purified with Ficoll gradient solution—Histopaque 1077 (Sigma) from a healthy donor and CD3+ T cells were isolated using EasySep™ Human T cell Enrichment Kit (StemCell). Before staining, […] human Fc receptors on CD3+ T cells were blocked with Human Fc Block (BD). Then cells were incubated with fluorescence labeled antibody mixture (APC-Cy7 Mouse Anti-human CD3, PerCP-CyTM5.5 Anti-human CD4 and FITC anti-human CD8) for 15 minutes at 4° C. After washing the cells once with PBS supplemented with 2% FBS, cells were aliquoted to 96-well plates at 2×10⁵ cells per well, and cells were incubated with serial diluted bispecific, SAFE-bispecific or IgG1 isotype control antibodies for 30 minutes at 4° C. After washing the cells twice with PBS supplemented with 2% FBS, cell surface bound antibody was detected by incubating the cells with APC-labeled mouse anti-human IgG Fc secondary antibody for 30 minutes at 4° C. Cells were washed and detected by FACS using Cytoflex (BeckMan) and data was analyzed by FlowJo. The mean fluorescence (MFI) of each antibody binding to human or monkey CD4+ T cells and CD8+ T cell populations were fitted with four-parameter non-linear regression to get EC₅₀ values by GraphPad Prism software.

[11] = target: T3, human CD3 on cells (Jurkat cells, human …); experiment: flow cytometry, human CD8+ T cells
Description: as §4

[12] = target: T4, cynomolgus monkey CD3 on T cells; experiment: flow cytometry, monkey CD4+ T cells
Description: as §4

[13] = target: T4, cynomolgus monkey CD3 on T cells; experiment: flow cytometry, monkey CD8+ T cells
Description: as §4

[14] = target: T3, human CD3 on cells (Jurkat cells, human …); experiment: binding to human CD3+ T cells
[15] = target: T3, human CD3 on cells (Jurkat cells, human …); experiment: binding to human CD4+ T cells
[16] = target: T3, human CD3 on cells (Jurkat cells, human …); experiment: binding to human CD8+ T cells
[17] = target: T1, human CD20 on cells (human B cells; …); experiment: flow cytometry, human B cells; remark: listed apart in the source
Description: After washing the cells twice with PBS supplemented with 2% FBS, cell surface bound antibody was detected by incubating the cells with APC-labeled mouse anti-human IgG Fc secondary antibody for 30 minutes at 4° C. Cells were washed and detected by FACS using Cytoflex (BeckMan) and data was analyzed by FlowJo.

[18] = target: T2, cynomolgus monkey CD20 on B cells; experiment: flow cytometry, monkey B cells; remark: listed apart in the source

B1: TAC2392 (bispecific antibody)
light: QIVLTQSPSSLSASVGDRVTITCRASSSVSYIHWFQQKPGKSPKPLIYATSNLASGVPVRFSGSGSGTDYTLTISSLQPEDFATYYCQQWTSNPPTFGGGTKVEIKRTVAAPSVFIFPPSDEQLKSGTASVVCLLNNFYPREAKVQWKVDNALQSGNSQESVTEQDSKDSTYSLSSTLTLSKADYEKHKVYACEVTHQGLSSPVTKSFNRGEC
heavy: QVQLVQSGAEVKKPGASVKVSCKASGYTFTSYNMHWVRQAPGQGLEWMGAIYPGNGDTSYNQKFQGRVTITADKSISTAYMELSSLRSEDTAVYYCARSTYYGGDWYFNVWGAGTLVTVSSASTKGPSVFPLAPSSKSTSGGTAALGCLVKDYFPEPVTVSWNSGALTSGVHTFPAVLQSSGLYSLSSVVTVPSSSLGTQTYICNVNHKPSDTKVDKKVEPKSCDKTHTCPPCPAPPVAGPSVFLFPPKPKDTLMISRTPEVTCVVVDVKHEDPEVKFNWYVDGVEVHNAKTKPREEEYNSTYRVVSVLTVLHQDWLNGKEYKCKVSNKALPAPIEKTISKAKGQPREPQVYTLPPSREEMTKNQVSLTCDVSGFYPSDIAVEWESDGQPENNYKTTPPVLDSDGSFFLYSKLTVDKSRWEQGDVFSCSVMHEALHNHYTQKSLSLSPGK
chain: not shown
notes: also called CD20xCD3 bispecific antibody
- EC50 [1]: 135 nM
- Max MFI [1]: 22000 MFI
- EC50 [2]: 487 nM
- Max MFI [2]: 675000 MFI
- EC50 [3]: 12.6 nM
- max MFI [3]: 32300 MFI
- EC50 [4]: 592 nM
- Max MFI [4]: 447000 MFI
- EC50 [5]: 83.8 nM
- max MFI [5]: 6020 MFI
- EC50 [6]: 26.9 nM
- Max MFI [6]: 2.29e+06 MFI
- EC50 [7]: 48.6 nM
- Max MFI [7]: 3640 MFI
- EC50 [8]: 6.92 nM
- max MFI [8]: 6490 MFI
- EC50 [9]: 26.6 nM
- max MFI [9]: 3200 MFI
- EC50 [10]: 62.1 nM
- EC50 [11]: 37.2 nM
- EC50 [12]: 120 nM
- EC50 [13]: 58.6 nM

B2: TY25455 (bispecific antibody, human IgG1, kappa, N297A)
light: QIVLSQSPAILSASPGEKVTMTCRASSSVSYIHWFQQKPGKSPKPWIYATSNLASGVPVRFSGSGSGTSYSLTISRVEAEDAATYYCQQWTSNPPTFGGGTKVEIKRTVAAPSVFIFPPSDEQLKSGTASVVCLLNNFYPREAKVQWKVDNALQSGNSQESVTEQDSKDSTYSLSSTLTLSKADYEKHKVYACEVTHQGLSSPVTKSFNRGEC
heavy: EVQLVQSGAEVKKPGSSVKVSCKASGYTFTSYNMHWVRQAPGKGLEWIGAIYPGSGDTSYNQKFKGRVTITADKSTSTAYMELSSLRSEDTAVYYCARSTYYGGDWYFNVWGQGTLVTVSSASTKGPSVFPLAPSSKSTSGGTAALGCLVKDYFPEPVTVSWNSGALTSGVHTFPAVLQSSGLYSLSSVVTVPSSSLGTQTYICNVNHKPSNTKVDKKVEPKSCDKTHTCPPCPAPELLGGPSVFLFPPKPKDTLMISRTPEVTCVVVDVSHEDPEVKFNWYVDGVEVHNAKTKPREEQYASTYRVVSVLTVLHQDWLNGKEYKCKVSNKALPAPIEKTISKAKGQPREPQVYTLPPSRKKLTKNQVKLTCLVKGFYPSDIAVEWESNGQPENNYKTTPPVLDCDGSFFLYSKLTVDKSRWQQGNVFSCSVMHEALHNHYTQKSLSLSPGK
chain: QAVVTQEPSLTVSPGGTVTLTCGSSTGAVTTSNYPNWVQQKPGQAPRGLIGGTNKRAPGVPARFSGSLLGGKAALTLSGAQPEDEAEYYCALWYSNLWVFGGGTKLTVLGGGGSGGGGSGGGGSGGGGSEVQLVESGGGLVQPGGSLRLSCAASGFTFNTYAINWVRQAPGKGLEWVGRIRSKYNNYATYYAESVKGRFTISRDDSKNTLYLQINSLRAEDTAVYYCVRHGNFGTSYVSWFAYWGQGTLVTVSSEPKSSDKTHTCPPCPAPELLGGPSVFLFPPKPKDTLMISRTPEVTCVVVDVSHEDPEVKFNWYVDGVEVHNAKTKPREEQYASTYRVVSVLTVLHQDWLNGKEYKCKVSNKALPAPIEKTISKAKGQPREPQVYTDPPSRDELTKNQVSLTCLVDGFYPSDIAVEWESNGQPENCYKTTPPVLDSDGSFFLYSKLTVDKSRWQQGNVFSCSVMHEALHNHYTQDSLSLSPGK
notes: also called parental CD20xCD3 bispecific antibody of TY25606; TY2455
- EC50 [14]: 21.7 nM
- EC50 [15]: 18.1 nM
- EC50 [16]: 25.4 nM
- EC50 [8]: 9.52 nM
- max MFI [8]: 4850 MFI
- EC50 [9]: 10.5 nM
- max MFI [9]: 2100 MFI
- binding result [17]: binds
- EC50 [18]: 39.1 nM
- EC50 [12]: 27.3 nM
- EC50 [13]: 82.1 nM
